Assay results from publication PMC6509336, “Wnt5a is a TLR2/4-ligand that induces tolerance in human myeloid cells” (Communications Biology, 2019).

Legend:
Experiment in all cases: SPR; Biacore 3000, CM5 chip; rhTLR2, rhTLR4/MD2 and rhTLR4 amine-coupled (4.0, 4.7, 4.0 kRU); Wnt5a or Wnt3a injected at 25-100 nM for 2 min at 30 ul/min in HBS-P (10 mM HEPES, 0.15 M NaCl, 0.005% P20, pH 7.4) with ZnCl2 and CaCl2; Req from a 1:1 fit plotted against concentration and fit to a one-site hyperbola (steady-state KD)
Details in all cases: both partners purified
rhTLR4 = target: T1, rhTLR4 (human, UniProt O00206 24-631)
T1 construct: toll-like receptor 4, recombinant human protein from R&D Systems; No catalogue number or construct limits are printed; also called rhTLR4-his; source: bought: R&D Systems

rhTLR2 = target: T2, rhTLR2 (human, UniProt O60603 21-588)
T2 construct: toll-like receptor 2, recombinant human protein from R&D Systems; No catalogue number, tags or construct limits are printed; source: bought: R&D Systems

rhTLR4/MD2 = target: T3, rhTLR4/MD2 (human, UniProt O00206 24-631; Q9Y6Y9 19-160)
T3 construct: toll-like receptor 4 in the recombinant human TLR4/MD2 complex from R&D Systems; MD2 (lymphocyte antigen 96) in the recombinant human TLR4/MD2 complex from R&D Systems; Bought as a preformed complex; No catalogue number, tags or construct limits are printed; source: bought: R&D Systems
T3 sequence (O00206 24-631, chain 1 of 2): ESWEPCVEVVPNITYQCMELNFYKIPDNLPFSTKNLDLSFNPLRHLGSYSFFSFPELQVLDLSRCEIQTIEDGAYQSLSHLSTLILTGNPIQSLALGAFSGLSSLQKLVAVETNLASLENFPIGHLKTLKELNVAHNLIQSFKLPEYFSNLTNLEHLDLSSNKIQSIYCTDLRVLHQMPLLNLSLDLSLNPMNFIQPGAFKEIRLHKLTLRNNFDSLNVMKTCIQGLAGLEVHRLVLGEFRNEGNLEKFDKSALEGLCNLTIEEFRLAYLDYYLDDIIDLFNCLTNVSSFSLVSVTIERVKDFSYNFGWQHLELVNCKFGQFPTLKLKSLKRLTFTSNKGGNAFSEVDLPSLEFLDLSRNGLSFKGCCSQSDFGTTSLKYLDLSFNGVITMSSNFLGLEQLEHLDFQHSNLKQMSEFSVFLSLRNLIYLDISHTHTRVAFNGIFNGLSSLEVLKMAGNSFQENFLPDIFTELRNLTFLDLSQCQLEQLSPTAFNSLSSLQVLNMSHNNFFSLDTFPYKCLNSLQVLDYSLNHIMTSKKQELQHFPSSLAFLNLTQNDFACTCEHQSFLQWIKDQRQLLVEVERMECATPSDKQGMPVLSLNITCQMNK
T3 sequence (Q9Y6Y9 19-160, chain 2 of 2): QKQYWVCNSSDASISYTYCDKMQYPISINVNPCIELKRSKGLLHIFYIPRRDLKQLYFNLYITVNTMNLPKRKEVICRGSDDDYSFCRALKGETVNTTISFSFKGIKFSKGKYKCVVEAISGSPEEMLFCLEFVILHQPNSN

T1 sequence (O00206 24-631): as the sequence (O00206 24-631, chain 1 of 2) above
T2 sequence (O60603 21-588): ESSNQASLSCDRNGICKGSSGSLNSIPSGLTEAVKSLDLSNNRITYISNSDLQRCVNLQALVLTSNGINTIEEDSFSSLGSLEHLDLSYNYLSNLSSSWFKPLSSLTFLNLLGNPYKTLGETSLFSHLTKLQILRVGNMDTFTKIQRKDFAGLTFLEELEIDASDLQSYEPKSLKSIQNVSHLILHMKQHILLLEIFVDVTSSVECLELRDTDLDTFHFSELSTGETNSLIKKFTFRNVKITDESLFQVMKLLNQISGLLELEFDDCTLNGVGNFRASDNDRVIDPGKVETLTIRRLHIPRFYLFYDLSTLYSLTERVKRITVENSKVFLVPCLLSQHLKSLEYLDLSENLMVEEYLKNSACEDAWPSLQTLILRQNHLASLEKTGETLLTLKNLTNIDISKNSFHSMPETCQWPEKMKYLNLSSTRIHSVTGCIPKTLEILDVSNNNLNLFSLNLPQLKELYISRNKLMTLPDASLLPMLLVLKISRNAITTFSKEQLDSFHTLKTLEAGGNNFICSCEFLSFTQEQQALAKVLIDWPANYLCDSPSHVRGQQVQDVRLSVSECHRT

- Kd (rhTLR4): 44.5 nM
- Kd (rhTLR2): 26.5 nM
- Kd (rhTLR4/MD2): 35.5 nM
B1: recombinant human/mouse (rh/m)Wnt5a (ligand, UniProt P41221 62-380, looked up)
chain: IIGAQPLCSQLAGLSQGQKKLCHLYQDHMQYIGEGAKTGIKECQYQFRHRRWNCSTVDNTSVFGRVMQIGSRETAFTYAVSAAGVVNAMSRACREGELSTCGCSRAARPKDLPRDWLWGGCGDNIDYGYRFAKEFVDARERERIHAKGSYESARILMNLHNNEAGRRTVYNLADVACKCHGVSGSCSLKTCWLQLADFRKVGDALKEKYDSAAAMRLNSRGKLVQVNSRFNSPTTQDLVYIDPSPDYCVRNESTGSLGTQGRLCNKTSEGMDGCELMCCGRGYDQFKTVQTERCHCKFHWCCYVKCKKCTEIVDQFVCK
notes: Wnt5a, recombinant human/mouse protein from R&D Systems, molecular weight 38,000; Lyophilized from PBS, EDTA and CHAPS; No catalogue number is printed; also called rWnt5a; source: bought: R&D Systems
